How the values were obtained:
Colo205 cells = test: ApoOne apoptosis assay, caspase 3/7 activity; type: cell-based, human; conditions: for Caspase 3/7 activation: COLO205, 3 day time course, antibodies up to 40 ug/mL
Method: FIG. 11. Mechanism of Cell Death Induced by 2F6 with Caspase 3/7 Activation Associated with Reactivation of Apoptosis. […] In contrast, the absence of drug or antibody has no effect (cells only column).
A mode of action by which the 2F6 is able to inhibit cell growth was determined by an ApoOne apoptosis assay in which caspase 3/7 activity was measured in combination with cell growth through the Cell Titer Blue assay. Colo205 cells were grown in a 3-day growth assay with increasing 2F6 from 0-40 ug/mL. The gemcitabine positive control was added to establish the degree of apoptosis that may be elicited by the presence of bound antibody.

Lewis Lung (LL) tumour = test: Lewis Lung (LL) syngeneic xenograft model, lung metastases; type: in vivo, mouse; conditions: 5 mL/kg daily; Day 11
Method: Dosing occurred every 3 days at antibody concentrations of 1 or 10 mg/kg i.v. or with PBS for treatment control or Sorafenib at 5 mL/kg daily as a positive control in the Lewis Lung model. Mice were randomised into equal groups of 10 mice, based on tumour volume on Day 0 of the studies.
Mice were anaesthetised for blood collection and euthanised by exsanguination via terminal cardiac bleed 48 hours post-final dose, on Days 11 or 14 post-initial treatment.
The lungs were excised from all mice. Lung surface metastases were counted and were categorised according to size: small (<1 mm), medium (≧1 mm and <3 mm) and large (≧3 mm). Excised lungs were preserved in 10% neutral buffered formalin.
The syngeneic Lewis Lung model was used with additional control groups. Besides the PBS control group of ten mice (Group 1), a positive control group using daily Sorafenib at 5 mL/kg was included (Group 5) along with antibody treatment groups consisting of sheep affinity purified E200-300 polyclonal antibody at 10 mg/kg (Group 2), 2F6-hIgG1 at 1 mg/kg (Group 3) and 2F6-hIgG1 at 10 mg/kg (Group 4).

[1] = target: T1, E200-300 epitope of P2X7 receptor (Homo sapiens, UniProt Q99572, INS205RNILPGGA); test: ELISA against immobilised antigen E200-300; type: binding
T1 construct: added C-terminal Cys (attachment point for BSA, DT, ovalbumin or KLH via MCS); purchased Chiron Mimotopes; host or cells: solid phase peptide synthesis
T1 sequence (Q99572 with tags, fused parts or gaps isoform Q99572-5 INS205RNILPGGA): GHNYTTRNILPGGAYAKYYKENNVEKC
Method: FIG. 18. ELISA of IgM, IgG2a and Fab Leads. Lead Affinity Matured 2F6-Derived Fab ELISA (scale 0.01-12.5 ug/mL for IgM and IgG2a; 0.1-100 ug/mL for Fabs).
The 2F6 VH and VL gene fragments were amplified and assembled into an E. coli expression/secretion vector. Both the 2F6 scFv and Fab were transformed into E. coli and expression of the gene construct induced. The E. coli cultures were harvested 5 hours post induction and the scFv and Fab analysed for binding using ELISA and Biacore against immobilised antigen E200-300.
Mutagenesis of the 2F6 scFv was introduced through a combination of error prone PCR, NNK randomisation and sequence length variation of HCDR3. A mutated library in the phagemid vector was of order 1×10^7. Screening of the library for higher affinity mutants employed a combination of phage display with filter expression assays using biotinylated E200-300 antigen. A selection of higher affinity scFv lead phage clones underwent small scale expression of soluble antibody fragments with affinities measured using ELISA and Biacore.

[2] = target: T2, non-functional receptors on live COLO-205 cells (Homo sapiens, UniProt Q99572); test: Flow cytometry binding to live COLO205 cells; type: cell-based; conditions: FLAG-tagged Fabs; anti-FLAG secondary
T2 construct: endogenous in cells; host or cells: COLO-205 (human colorectal tumour cells)
T2 sequence (Q99572 1-595): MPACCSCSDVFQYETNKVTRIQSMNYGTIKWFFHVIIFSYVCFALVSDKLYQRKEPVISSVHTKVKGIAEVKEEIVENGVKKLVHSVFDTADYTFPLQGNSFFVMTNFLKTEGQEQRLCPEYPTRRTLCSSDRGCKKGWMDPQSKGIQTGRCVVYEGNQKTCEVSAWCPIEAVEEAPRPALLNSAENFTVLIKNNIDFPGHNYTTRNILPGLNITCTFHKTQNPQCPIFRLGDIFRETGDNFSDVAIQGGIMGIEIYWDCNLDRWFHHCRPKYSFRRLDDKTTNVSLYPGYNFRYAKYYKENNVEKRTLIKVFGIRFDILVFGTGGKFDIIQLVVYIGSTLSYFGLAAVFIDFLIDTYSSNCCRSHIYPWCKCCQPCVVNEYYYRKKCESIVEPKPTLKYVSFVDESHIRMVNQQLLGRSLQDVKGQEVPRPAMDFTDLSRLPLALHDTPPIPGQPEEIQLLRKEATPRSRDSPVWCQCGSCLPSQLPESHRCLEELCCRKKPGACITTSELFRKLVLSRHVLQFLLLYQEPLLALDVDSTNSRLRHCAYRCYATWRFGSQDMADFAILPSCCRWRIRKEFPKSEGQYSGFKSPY
Text: (§1) FIGS. 19(a)-(b). (a) Flow cytometry results for binding recombinant Fabs to live colorectal COLO205 tumour cells. A Sigma anti-FLAG secondary antibody (#F4049) was used to detect the binding of the primary antibodies. WT 2F6 Fab bound weakly over the same concentration range. The EC50 for the four lead Fabs is very similar to the values obtained from ELISA measurements. (b) Very similar improved binding results were obtained for prostate PC3 cells.
(§2) Flow cytometry was used to measure the enhanced binding of selected affinity matured recombinant Fabs in human COLO-205 and PC3 cell lines over that of the starting 2F6 sequence. Recombinant FLAG-tagged Fabs were bound to cells and detected using a Sigma F4049 murine monoclonal anti-FLAG antibody conjugated to FITC used at a concentration of 1:75. Affinity purified sheep 200-300 antibody was examined for direct comparison with the 2F6 mIgG2a WT by Flow to PC3 cells.

[3] = target: T3, non-functional receptors on live PC3 cells (Homo sapiens, UniProt Q99572); test: Flow cytometry binding to PC3 cells; type: cell-based
T3 construct: endogenous in cells; host or cells: PC3 (human prostate tumour cells)
T3 sequence (Q99572 1-595): T2 sequence (Q99572 1-595)
Text: as §1
FIG. 20. A comparison was made with various preparations of recombinant 2F6 IgG2a to determine the relative binding strength of the WT formatted antibody to PC3 cells compared with the affinity matured Fabs. Rockland IgG2a #010-001-332 was used for control to determine background (diamond).
as §2

[4] = system: prostate PC3, colon COLO205, breast MDAMB231, melanoma A375 and breast MCF7; test: Cell Titer Blue assay of cell growth, range of cancer cell lines; type: cell-based; conditions: for cell growth: 3-day or 5-day growth, antibody 0-40 ug/mL
Method: (§3) FIGS. 9(a)-(d). (a) In Vitro Cell Inhibition Assays. […] Growth over 5 days is inhibited to a greater extent than over 3 days. The growth data is plotted relative to the control growth curves obtained using the control IgM antibody.
(§4) Cells were seeded at appropriate density and grown over a 3-day or 5-day period to reach a level close to confluence at the end of the test period in the presence of control antibodies and in the presence of test antibodies, either IgM or IgG2a types of 2F6 over the concentration range 0-40 ug/mL. Testing of cell line growth was conducted with seed densities ranging from 100-2000 cells/well.

MCF-7 cells = test: Direct cell killing, confocal microscope images; type: cell-based; conditions: 20 ug/mL; 24 hours exposure
Method: FIG. 12. Direct Cell Killing by 2F6 IgM. Confocal microscope images of MCF-7 cells in presence of control IgM antibody (a) and 2F6 IgM (b) for 24 h.

[5] = system: MCF-7 breast cancer cell line; test: Cell Titer Blue cell growth inhibition with peptide blocking, MCF-7; type: cell-based; conditions: for growth inhibition after pre-incubation of antibody with soluble peptide epitope: 3 days
Method: FIG. 10. Blocking Reaction in Cell Killing Assay. The Cell Titer Blue cell growth inhibition assay is used over three day cell growth with MCF-7 breast cancer cell line. Note the viable control cells in the right column have no antibody or peptide. The left hand column is the signal derived from the cells incubated with 10 ug/mL 2F6 IgM antibody containing 500 ug/mL peptide epitope (E200-300 epitope described as 200/300 in Figure), sufficient to block the cell growth inhibition evidenced by the data in the three central columns that show growth inhibition is not affected by the presence of 50 ug/mL, 5 ug/mL or 0 ug/mL peptide respectively.
as §4

COLO205 = test: Cell Titer Blue cell growth assay, COLO205; type: cell-based, human
Method: as §3, §4

With `Nc1ccn([C@@H]2O[C@H](CO)[C@@H](O)C2(F)F)c(=O)n1` [Gemcitibine, gemcitabine, reference compound] the “Caspase 3/7 activation” value (Colo205 cells) was “activate caspases”.

In the case of `CNC(=O)c1cc(Oc2ccc(NC(=O)Nc3ccc(Cl)c(C(F)(F)F)c3)cc2)ccn1` [Sorafenib, reference compound], the “Mean Lung Surface Mets” value (Lewis Lung (LL) tumour) is reported as 0.1 and the “inhibition of lung metastases relative to PBS control” value (Lewis Lung (LL) tumour) is reported as 96%.

B1: WT Fab: recombinant Fab of wildtype 2F6 expressed in E. coli (antibody, V domains shown)
VH: DVKLVESGGGLVKLGGSLKLSCAASGFTFSSYYMSWVRQTPEKRLELVAAINSNGGSTYYPDTVKGRFTISRDNAKNTLYLQMSSLKSEDTAFYYCTRHYSSRFFDVWGAGTTVTVSS
VL: MADIVMTQSQKFMSTSVGDRVSVTCKASQNVGTNVAWYQQKPGQSPKALIYSASFRYSGVPDRFTGSGSGTDFTLTISNVQSEDLAEFFCQQYNSYPFTFGSGTRLEIK
B1 was tested, and the “binding compared with selected affinity matured leads” value ([1]; ELISA, Fab format) was “much lower (2-logs) binding”, the “EC50 (ELISA)” value ([1]; scale 0.01-12.5 ug/mL for IgM and IgG2a, 0.1-100 ug/mL for Fabs) was “very low EC50” and the “binding to live COLO205 cells” value [2] was “bound weakly”.

B2: 2F6 IgG2a: 2F6 VH and VL chains spliced into a mouse IgG2a sequence, expressed in HEK293 cells (antibody, V domains shown)
VH: B1 VH
VL: B1 VL
For B2, the “binding to PC3 cells” value [3] was “comparable to the binding elicited by the lead Fabs”, the cell growth [4] was “inhibited cell growth” and the “cell growth inhibition compared with the IgM form” value ([4]; over 3 days) was “weaker cell inhibition”.

B3: 2F6 IgM: hybridoma clone 2F6, mouse IgM with Kappa light chains, raised to P2X7 E200-300; CDR3 HYSSRFFDV (antibody, V domains shown)
VH: B1 VH
VL: B1 VL
modifications: IgM constant regions
notes: hybridoma clone 2F6, mouse IgM with Kappa light chains, raised to P2X7 E200-300; CDR3 …
In the case of B3, the “Caspase 3/7 activation” value (Colo205 cells) is reported as “steady increase”, the “antibody concentration sufficient to initiate full caspase 3/7 (apoptosis) activity” value (Colo205 cells; Colo205, 3-day growth assay) is reported as 20 to 40 µg/mL and the “cell death (confocal images)” value (MCF-7 cells) is reported as “many cells are already dead”. For the same molecule, the “growth inhibition after pre-incubation of antibody with soluble peptide epitope” value ([5]; 10 ug/mL antibody, E200-300 peptide 500 ug/mL) was “no longer able to affect cell growth”, the “growth inhibition after pre-incubation of antibody with soluble peptide epitope” value ([5]; 10 ug/mL antibody, E200-300 peptide 5-50 ug/mL) was “no effect on the inhibition” and the MCF7 cell growth ([5]; 10 ug/mL antibody, over 3 days) was “greatly inhibits cell growth”. The MCF-7 cell growth ([5]; after 5 days of exposure) was “Total inhibition of cell growth”, the cell growth [4] was “inhibited cell growth” and the COLO205 growth (COLO205; over 3 days, relative to control IgM) was “significantly inhibited”. The COLO205 cells (COLO205; over 5 days, even at low dose of 2.5 ug/mL) was “eliminated”.

— patent publication US8835609B2, “Antigen binding sites to non-functional oligomeric P2X7 receptors and methods of use thereof” (Biosceptre International Limited, priority 2009, dated 2014)
